Reference: publication PMC7538587
Where “and” joins values, the source holds several entries; their conditions need not be identical. Equal entries are not always repeated.

Assays:
[1] = biological target: SALT protein (Oryza sativa L. (Pusa basmati-1)) (UniProt A2WPN7); experiment: SEC; Superdex 200 10/300 GL, 200 µl of 5 mg/ml SALT, 20 mM each of mannose and galactose in sample and buffer; calibrated with marker proteins
[2] = biological target: SALT protein (Oryza sativa L. (Pusa basmati-1)) (UniProt A2WPN7); experiment: SDS-PAGE without heat denaturation; purified SALT, 1 mg/ml, 12% gel, with SDS and BME, not heated; confirmed by immunoblotting
[3] = biological target: SALT protein (Oryza sativa L. (Pusa basmati-1)) (UniProt A2WPN7); experiment: SAXS; SALT freshly eluted from gel filtration, 5, 11 and 22 mg/ml, 20 °C; molecular weight from SAXS about 32.2-33.4 kDa

stoichiometry N [1]: 2 | stoichiometry N [2]: 2 and 4 | stoichiometry N [3]: 2
Substance: SALT protein (from UniProt A2WPN7 1-145) (natural protein)
